This is an account of results in patent US7884067B2, “Peptides derived from cadherin and methods of use thereof” (Mount Sinai School of Medicine of New York University, priority 2001, dated 2011).

For one test, the system named is N-cadherin. Description: N-cadherin processing in fibroblast cultures (Western blot, C32). The test is classed as cell-based, mouse. The conditions noted are these: WT fibroblasts, L-685,458 (0.5 μM), 16 hours. The procedure:
Extracts from PS1+/+ or PS1−/− mouse embryos were probed on WBs with either anti-cytoplasmic N-cadherin antibody (FIG. 7A, upper panel) or anti-PS I/CTF antibody 33B10 (FIG. 7A, lower panel). Extracts from PS1+/+ or PS1−/− fibroblast cultures were incubated for 16 hours in the absence or presence of DMSO, L-685,458 (0.5 μM) and probed on WBs with either C32 or 33B10 antibodies.

In test [1] the test system is CRE-dependent transactivation. Description: CRE-dependent transactivation in N2a cells. The test is classed as cell-based, mouse. Particulars: 16 hours, vs DMSO, FIG. 10A. Also on record: dose or concentration left out as unconfirmed. The procedure:
Transactivation assays. CRE-dependent transactivation was measured in the absence or presence of overexpression of PKA (pFC-PKA, Stratagene) by cotransfection with CRE-luciferase reporter plasmid (pCRE-Luc, Stratagene) and pSV-β-galactosidase vector (Promega) to evaluate transfection efficiency. CHOP-mediated transactivation was measured by cotransfection with the Gal4-fusion trans-activator plasmids (pFA-CHOP and pFR-Luc, Stratagene). 30 hours after transfection, luciferase and β-galactosidase activities were determined following manufacturer's instructions using a TD-20/20 luminometer (Turner Designs) and a DU-64 spectrophotometer (Beckman). Values were normalized to β-galactosidase activity and protein concentration.
N2a cells co-transfected with plasmids pCRE-luc, pFC-PKA, and pSV-β-galactosidase were incubated for 16 hours with DMSO or with L-685,458 ([…]) and CRE-dependent transactivation was measured as described above. […] Total RNA isolated from N2a cells treated either with DMSO or with L-685,458, was analyzed by semiquantitative RT-PCR using specific primers for c-fos and gapdh. The graph in FIG. 10B represents the relative abundance of c-fos-specific PCR products following quantitation of the mRNA signals shown in the upper panel. […]

The next test has as its system MEF-1. Description: Electrophoretic mobility shift assay, MEF-1 probe. The test is classed as biochemical. The conditions noted are these: FIG. 11C lanes 12-14. The procedure:
Electrophoresis mobility shift assay (EMSA). Nuclear extract from CBP-transfected L cells were prepared using the extraction kit N-XTRACT (Sigma) according to manufacturer's instructions. Ten microgram of nuclear extract was used for EMSA performed according to manufacturer's instructions using biotinylated double-stranded oligonucleotide probes containing DNA-binding motifs for CREB or MEF-1 (Panomics). Probes are as follow: CREB, 5′-[…]-3′ (SEQ ID NO: 17); MEF-1,5′-[…]-3′ (SEQ ID NO: 18). Reaction products were separated on 6% polyacrylamide gels in cold TBE buffer (50 mM Tris-HCl, 45 mM Boric acid, 0.5 mM EDTA), transferred to nylon membranes (Immobilon-Ny+, Millipore) and bound probes were immobilized for 30 minutes at 85° C. and visualized by chemiluminescence using streptavidin-HRP conjugate. For antibody supershift analysis, nuclear extract was incubated for 3 hours at 4° C. with […] of 1 B6 antibody prior to probe addition. Where indicated, nuclear extract ([…]) was immunoprecipitated with A-22 antibody ([…]) and protein A-agarose in EBC buffer (50 mM Tris, pH 8, 120 mM NaCl, 0.5% NP40, 1× Complete protease inhibitor cocktail).

The next test concerns the target T1, CBP (Mus musculus, UniProt P45481).
T1 construct: a process that relies on endogenous CBP and CREB; endogenous in cells; host or cells: L cells transfected with vector or pN-Cad/CTF2
Description: Nuclear/cytosolic fractionation of transfected L cells (Western blot). The test is classed as cell-based. The method, then: Subcellular fractionation. Transfected cells were washed in PBS, placed into 1 ml of buffer A (20 mM Tris-HCl, pH 7.5, 0.25 M sucrose, 10 mM EGTA, 2 mM EDTA, Ix Complete protease inhibitor cocktail), and then passed through a 27 gauge needle 10 times. Obtained lysates were centrifuged at 500×g for 10 minutes and pellets (nuclear fraction) were washed twice with 1 ml of buffer A containing 0.1% Triton X-100 and solubilized by sonication in RIPA buffer. Supernatants were centrifuged at 120,000×g for 45 minutes at 4° C. to separate cytosolic and crude membrane fractions. A 50 μg protein aliquot from the nuclear and cytosolic fractions was analyzed on WBs.
To determine how N-Cad/CTF2 affects CREB-mediated transcription, the following experiments were performed. L cells transfected either with vector (vector) or pN-Cad/CTF2 (N-Cad/CTF2) plasmids were fractionated into nuclear and cytosolic fractions, and probed on WBs with anti-CBP (FIG. 11A, panel a), anti-N-cadherin (FIG. 11A, panel b), anti-β-tubulin (FIG. 11A, panel c) or anti-phosphorylated CREB (P-CREB; FIG. 11A, panel d) antibodies. Extract from pN-Cad/CTF2-transfected L cells was immunoprecipitated either with non-immune serum (NI) or with antibodies against CBP (CBP), β-tubulin (β-Tub), E-cadherin (C36) or N-cadherin (C32). Obtained IPs were probed with anti-CBP (FIG. 11B, upper panel), anti-N-cadherin (FIG. 11B, middle panel) or anti-β-tubulin (FIG. 11B, lower panel) antibodies. For reference, cell lysate was also probed (FIG. 11B, first lane). L cells transiently transfected with pN-Cad/CTF2 were analyzed by immunofluorescence staining. Cells were triple-labeled with DAPI (blue), anti-CBP (red) and anti-N-cadherin (C32; green) antibodies. Nuclear extract from pN-Cad/CTF2-transfected L cells were incubated with biotinylated double-stranded DNA probes containing binding sequence for either CREB (FIG. 11C, left panel) or MEF-1 (FIG. 11C, right panel). […]

T1 sequence (P45481 whole entry): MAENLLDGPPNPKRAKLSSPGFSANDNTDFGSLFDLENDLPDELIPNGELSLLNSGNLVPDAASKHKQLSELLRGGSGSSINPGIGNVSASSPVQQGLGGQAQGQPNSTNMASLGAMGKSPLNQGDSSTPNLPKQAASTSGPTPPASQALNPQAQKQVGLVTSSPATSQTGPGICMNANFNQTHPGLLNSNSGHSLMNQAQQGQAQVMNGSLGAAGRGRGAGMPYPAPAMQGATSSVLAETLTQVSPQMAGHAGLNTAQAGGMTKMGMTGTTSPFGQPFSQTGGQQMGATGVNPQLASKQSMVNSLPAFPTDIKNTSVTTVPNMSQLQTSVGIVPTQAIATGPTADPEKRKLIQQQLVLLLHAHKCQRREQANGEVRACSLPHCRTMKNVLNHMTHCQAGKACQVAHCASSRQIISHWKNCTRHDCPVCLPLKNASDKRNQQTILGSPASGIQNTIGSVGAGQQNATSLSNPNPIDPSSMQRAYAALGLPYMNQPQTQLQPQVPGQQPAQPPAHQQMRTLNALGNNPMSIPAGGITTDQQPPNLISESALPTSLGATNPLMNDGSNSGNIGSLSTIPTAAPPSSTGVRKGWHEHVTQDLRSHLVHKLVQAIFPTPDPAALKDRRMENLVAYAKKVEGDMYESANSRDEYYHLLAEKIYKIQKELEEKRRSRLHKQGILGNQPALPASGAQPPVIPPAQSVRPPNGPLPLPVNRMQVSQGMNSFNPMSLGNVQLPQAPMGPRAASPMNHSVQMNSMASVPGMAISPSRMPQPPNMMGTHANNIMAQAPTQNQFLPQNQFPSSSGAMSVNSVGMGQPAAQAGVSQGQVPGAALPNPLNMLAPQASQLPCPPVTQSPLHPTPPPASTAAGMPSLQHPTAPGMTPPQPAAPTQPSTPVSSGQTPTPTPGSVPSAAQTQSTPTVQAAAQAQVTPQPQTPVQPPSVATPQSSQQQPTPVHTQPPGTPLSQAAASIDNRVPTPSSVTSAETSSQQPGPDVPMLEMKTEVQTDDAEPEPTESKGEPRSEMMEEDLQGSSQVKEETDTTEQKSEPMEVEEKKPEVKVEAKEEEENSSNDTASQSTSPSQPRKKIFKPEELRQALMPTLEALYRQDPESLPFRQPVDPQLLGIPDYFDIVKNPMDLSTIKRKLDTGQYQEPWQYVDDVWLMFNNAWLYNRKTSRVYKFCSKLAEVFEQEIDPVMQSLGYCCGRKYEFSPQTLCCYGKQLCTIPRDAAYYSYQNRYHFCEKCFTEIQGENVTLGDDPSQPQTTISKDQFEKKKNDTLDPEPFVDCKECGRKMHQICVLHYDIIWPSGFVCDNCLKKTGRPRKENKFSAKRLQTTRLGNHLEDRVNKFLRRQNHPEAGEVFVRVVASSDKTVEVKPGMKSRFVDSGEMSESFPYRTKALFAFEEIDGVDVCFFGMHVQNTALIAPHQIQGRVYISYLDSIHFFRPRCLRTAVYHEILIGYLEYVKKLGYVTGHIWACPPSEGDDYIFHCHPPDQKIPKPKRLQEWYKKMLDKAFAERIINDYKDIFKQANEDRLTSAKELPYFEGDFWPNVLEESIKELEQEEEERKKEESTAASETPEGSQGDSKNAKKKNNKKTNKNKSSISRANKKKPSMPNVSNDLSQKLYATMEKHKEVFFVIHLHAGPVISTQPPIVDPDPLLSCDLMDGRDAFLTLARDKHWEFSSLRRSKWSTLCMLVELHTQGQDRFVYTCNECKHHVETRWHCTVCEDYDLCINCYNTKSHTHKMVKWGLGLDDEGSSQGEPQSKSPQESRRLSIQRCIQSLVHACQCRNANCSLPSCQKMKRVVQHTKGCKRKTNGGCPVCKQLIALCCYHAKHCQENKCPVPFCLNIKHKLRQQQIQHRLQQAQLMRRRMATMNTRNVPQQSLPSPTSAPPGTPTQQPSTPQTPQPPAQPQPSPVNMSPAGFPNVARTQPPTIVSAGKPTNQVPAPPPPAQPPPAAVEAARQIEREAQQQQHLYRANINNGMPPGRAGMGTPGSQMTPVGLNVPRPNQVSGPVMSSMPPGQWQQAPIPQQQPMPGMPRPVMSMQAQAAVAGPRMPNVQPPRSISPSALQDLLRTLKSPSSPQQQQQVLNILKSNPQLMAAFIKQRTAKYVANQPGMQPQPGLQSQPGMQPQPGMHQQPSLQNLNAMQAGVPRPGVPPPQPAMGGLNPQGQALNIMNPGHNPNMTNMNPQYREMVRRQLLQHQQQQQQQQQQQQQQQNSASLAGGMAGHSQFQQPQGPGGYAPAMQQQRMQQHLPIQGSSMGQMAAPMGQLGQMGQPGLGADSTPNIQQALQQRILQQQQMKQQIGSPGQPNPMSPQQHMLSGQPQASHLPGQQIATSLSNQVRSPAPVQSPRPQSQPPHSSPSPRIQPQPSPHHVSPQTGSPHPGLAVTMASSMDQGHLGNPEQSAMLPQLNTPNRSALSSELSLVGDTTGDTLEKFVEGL

`CC(C)C[C@H](NC(=O)[C@H](Cc1ccccc1)C[C@@H](O)[C@H](Cc1ccccc1)NC(=O)OC(C)(C)C)C(=O)N[C@@H](Cc1ccccc1)C(N)=O` [L-685,458]: the “40 kDa peptide N-Cad/CTF1” value in the test with N-cadherin was “accumulates”. Further, the CRE-dependent transactivation entry in test [1] was “increased”.

B1: N-Cad/CTF2: chicken cytoplasmic domain of N-cadherin (N-Cad/CTF2) inserted into vector pECE, expressed in L cells (protein)
chain: KRRDKERQAKQLLIDPEDDVRDNILKYDEEGGGEEDQDYDLSQLQQPDTVEPDAIKPVGIRRLDERPIHAEPQYPVRSAAPHPGDIGDFINEGLKAADNDPTAPPYDSLLVFDYEGSGSTAGSLSSLNSSSSGGEQDYDYLNDWGPRFKKLADMYGGGDD
B1: the “complex formation between MEF-1 and DNA probe containing MEF-1-binding elements” value in the test on MEF-1 is “no effect”. Further, the “change of CREB phosphorylation” value in the test with CBP (N-Cad/CTF2 overexpression, FIG. 11A panel d) is listed as “not detected”. For the same molecule, the “localization of phosphorylated CREB” value with CBP (transfection with N-Cad/CTF2, FIG. 11A panel d) is “no effects”. Moreover, in the test with CBP (transfection with N-Cad/CTF2 vs vector, FIG. 11A), the “nuclear and cytosolic CBP” value is recorded as “nuclear CBP decreased with a concomitant increase in cytosolic CBP”.
